T1: GLP-2 receptor (GLP2 G-protein coupled receptor) on transfected GLP2R cell line (Millipore, Cat #HTS164C) (human, UniProt O95838 1-553)
T1 sequence (looked up): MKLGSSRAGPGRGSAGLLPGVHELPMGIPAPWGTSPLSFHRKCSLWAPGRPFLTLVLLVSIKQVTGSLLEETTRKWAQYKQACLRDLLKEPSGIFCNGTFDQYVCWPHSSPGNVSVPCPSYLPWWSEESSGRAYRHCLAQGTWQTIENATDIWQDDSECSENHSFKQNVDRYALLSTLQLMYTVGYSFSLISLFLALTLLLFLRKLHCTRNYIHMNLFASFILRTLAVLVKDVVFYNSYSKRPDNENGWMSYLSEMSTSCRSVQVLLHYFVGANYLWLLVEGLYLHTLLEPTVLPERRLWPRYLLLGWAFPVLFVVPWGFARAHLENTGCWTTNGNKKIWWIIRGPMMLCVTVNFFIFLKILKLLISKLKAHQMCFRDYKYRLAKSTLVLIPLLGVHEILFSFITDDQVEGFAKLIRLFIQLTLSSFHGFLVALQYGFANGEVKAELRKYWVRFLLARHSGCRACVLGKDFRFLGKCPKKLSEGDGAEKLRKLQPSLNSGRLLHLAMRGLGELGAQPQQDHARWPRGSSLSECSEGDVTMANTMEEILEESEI


Columns and labels:
[1] = biological target: T1, GLP-2 receptor (GLP2 G-protein coupled …); experiment: cell-based or functional assay
[2] = Analytical size exclusion chromatography of XTEN fusion proteins with diverse payloads; type: physicochemical; conditions: SEC
Protocol: Size exclusion chromatography analyses were performed on fusion proteins containing various therapeutic proteins and unstructured recombinant proteins of increasing length. […] Chromatogram profiles were monitored using OD214 nm and OD280 nm. Column calibration for all assays were performed using a size exclusion calibration standard from BioRad; the markers include thyroglobulin (670 kDa), bovine gamma-globulin (158 kDa), chicken ovalbumin (44 kDa), equine myoglobuin (17 kDa) and vitamin B12 (1.35 kDa). […] Based on the SEC analyses for all constructs evaluated, the apparent molecular weights, the apparent molecular weight factor (expressed as the ratio of apparent molecular weight to the calculated molecular weight) and the hydrodynamic radius (RH in nm) are shown in Table 23. […] Accordingly, it is expected that fusion proteins comprising growth and XTEN have reduced renal clearance, contributing to increased terminal half-life and improving the therapeutic or biologic effect relative to a corresponding un-fused biologic payload protein.

| EC50 (calcium flux, FLIPR TETRA, GLP2R cell line) [1] [nM] | potency relative to GLP2-2G (calcium flux, GLP2R cell line) [1] [%] | Molecule | hydrodynamic radius [2] [nm] |
| --- | --- | --- | --- |
| 370 | ~2 | GLP2-2G-XTEN_AE864 fusion protein (ligand) HGDGSFSDEMNTILDNLAARDFINWLIQTKITDGGSPAGSPTSTEEGTSESATPESGPGTSTEPSEGSAPGSPAGSPTSTEEGTSTEPSEGSAPGTSTEPSEGSAPGTSESATPESGPGSEPATSGSETPGSEPATSGSETPGSPAGSPTSTEEGTSESATPESGPGTSTEPSEGSAPGTSTEPSEGSAPGSPAGSPTSTEEGTSTEPSEGSAPGTSTEPSEGSAPGTSESATPESGPGTSTEPSEGSAPGTSESATPESGPGSEPATSGSETPGTSTEPSEGSAPGTSTEPSEGSAPGTSESATPESGPGTSESATPESGPGSPAGSPTSTEEGTSESATPESGPGSEPATSGSETPGTSESATPESGPGTSTEPSEGSAPGTSTEPSEGSAPGTSTEPSEGSAPGTSTEPSEGSAPGTSTEPSEGSAPGTSTEPSEGSAPGSPAGSPTSTEEGTSTEPSEGSAPGTSESATPESGPGSEPATSGSETPGTSESATPESGPGSEPATSGSETPGTSESATPESGPGTSTEPSEGSAPGTSESATPESGPGSPAGSPTSTEEGSPAGSPTSTEEGSPAGSPTSTEEGTSESATPESGPGTSTEPSEGSAPGTSESATPESGPGSEPATSGSETPGTSESATPESGPGSEPATSGSETPGTSESATPESGPGTSTEPSEGSAPGSPAGSPTSTEEGTSESATPESGPGSEPATSGSETPGTSESATPESGPGSPAGSPTSTEEGSPAGSPTSTEEGTSTEPSEGSAPGTSESATPESGPGTSESATPESGPGTSESATPESGPGSEPATSGSETPGSEPATSGSETPGSPAGSPTSTEEGTSTEPSEGSAPGTSTEPSEGSAPGSEPATSGSETPGTSESATPESGPGTSTEPSEGSAPG | – |
| – | – | Glucagon-Y288: glucagon fused to unstructured polypeptide Y288 (protein) HSQGTFTSDYSKYLDSRRAQDFVQWLMNTGGEGSGEGSEGEGSEGSGEGEGSEGSGEGEGGSEGSEGEGGSEGSEGEGGSEGSEGEGSGEGSEGEGGSEGSEGEGSGEGSEGEGSEGGSEGEGGSEGSEGEGSGEGSEGEGGEGGSEGEGSEGSGEGEGSGEGSEGEGSEGSGEGEGSGEGSEGEGSEGSGEGEGSEGSGEGEGGSEGSEGEGSEGSGEGEGGEGSGEGEGSGEGSEGEGGGEGSEGEGSGEGGEGEGSEGGSEGEGGSEGGEGEGSEGSGEGEGSEGGSEGEGSEGGSEGEGSEGSGEGEGSEGSGE | ≥ 7 |

From patent US20250388643A1, “GLUCAGON-LIKE PEPTIDE-2 COMPOSITIONS AND METHODS OF MAKING AND USING SAME” (Amunix Pharmaceuticals, Inc., priority 2011, published 2025)
